Test results reported in US20230220381 (published 2023).

Key:
Thrombin [1] = target: T1, Thrombin (Homo sapiens, UniProt P00734;P00734 P00734:328-363,P00734:364-622); experiment: FP; 20 mM Tris, 140 mM NaCl, 20 mM KCl, 1 mM CaCl2, 1 mM MgCl2, 0.1% Triton X, room temperature
Thrombin [2] = target: T1, Thrombin; experiment: FP; no binding observed with up to 2 uM thrombin

Row | Binder | Kd (Thrombin [1]) | binding result (Thrombin [2])
1 | TBA1F (ssDNA, branched DNA-encoded construct: code strand with branching unit BU; aptamer branch …) DNA: CGTCGAGGCCCCTTCTTCTTCGTCTTCTTCTTAGGAGGTGGTGTGGTTGGTTTTACACGTCACGCCTTTTTTTTT | 13 nM | –
2 | NCL (ssDNA) DNA: CGTCGAGGCCCCTTCTTCTTCGTCTTCTTCTTAGGATACACGTCACGCCTTTTTTTTT | – | no binding
3 | GGTTGGTGTTGTTTG (ssDNA) [NCS] | – | no binding
4 | GGTTGGTGTGGTTGG (ssDNA) [PC (positive control TBA 15mer)] | 10 nM | –
